Values of other authors in article PMC11741591.

Molecular target: reelin receptors (ApoER2/VLDLR) (Homo sapiens) (UniProt Q14114)
UniProt Q14114, sequence (Q14114 33-826): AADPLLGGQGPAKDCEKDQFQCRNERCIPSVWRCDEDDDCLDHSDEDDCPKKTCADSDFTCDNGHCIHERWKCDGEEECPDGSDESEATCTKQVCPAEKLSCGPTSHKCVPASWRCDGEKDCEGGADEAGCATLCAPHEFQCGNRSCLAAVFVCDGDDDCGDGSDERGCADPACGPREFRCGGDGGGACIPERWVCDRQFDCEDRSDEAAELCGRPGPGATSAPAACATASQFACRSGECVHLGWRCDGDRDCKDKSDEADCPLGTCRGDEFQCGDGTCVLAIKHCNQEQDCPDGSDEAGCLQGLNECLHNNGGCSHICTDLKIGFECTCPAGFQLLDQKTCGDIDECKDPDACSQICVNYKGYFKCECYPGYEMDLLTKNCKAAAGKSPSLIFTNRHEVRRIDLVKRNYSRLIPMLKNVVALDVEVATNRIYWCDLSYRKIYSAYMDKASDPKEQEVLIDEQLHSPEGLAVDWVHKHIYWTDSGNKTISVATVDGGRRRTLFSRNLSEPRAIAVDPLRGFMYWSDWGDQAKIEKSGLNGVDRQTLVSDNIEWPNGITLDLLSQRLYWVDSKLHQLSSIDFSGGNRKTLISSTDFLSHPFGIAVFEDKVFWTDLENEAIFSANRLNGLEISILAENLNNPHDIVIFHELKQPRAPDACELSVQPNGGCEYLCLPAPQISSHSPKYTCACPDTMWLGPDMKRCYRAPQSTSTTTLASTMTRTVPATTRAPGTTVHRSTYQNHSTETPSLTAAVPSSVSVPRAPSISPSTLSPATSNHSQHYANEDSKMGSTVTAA

reelin, sequence (P78509 26-3460): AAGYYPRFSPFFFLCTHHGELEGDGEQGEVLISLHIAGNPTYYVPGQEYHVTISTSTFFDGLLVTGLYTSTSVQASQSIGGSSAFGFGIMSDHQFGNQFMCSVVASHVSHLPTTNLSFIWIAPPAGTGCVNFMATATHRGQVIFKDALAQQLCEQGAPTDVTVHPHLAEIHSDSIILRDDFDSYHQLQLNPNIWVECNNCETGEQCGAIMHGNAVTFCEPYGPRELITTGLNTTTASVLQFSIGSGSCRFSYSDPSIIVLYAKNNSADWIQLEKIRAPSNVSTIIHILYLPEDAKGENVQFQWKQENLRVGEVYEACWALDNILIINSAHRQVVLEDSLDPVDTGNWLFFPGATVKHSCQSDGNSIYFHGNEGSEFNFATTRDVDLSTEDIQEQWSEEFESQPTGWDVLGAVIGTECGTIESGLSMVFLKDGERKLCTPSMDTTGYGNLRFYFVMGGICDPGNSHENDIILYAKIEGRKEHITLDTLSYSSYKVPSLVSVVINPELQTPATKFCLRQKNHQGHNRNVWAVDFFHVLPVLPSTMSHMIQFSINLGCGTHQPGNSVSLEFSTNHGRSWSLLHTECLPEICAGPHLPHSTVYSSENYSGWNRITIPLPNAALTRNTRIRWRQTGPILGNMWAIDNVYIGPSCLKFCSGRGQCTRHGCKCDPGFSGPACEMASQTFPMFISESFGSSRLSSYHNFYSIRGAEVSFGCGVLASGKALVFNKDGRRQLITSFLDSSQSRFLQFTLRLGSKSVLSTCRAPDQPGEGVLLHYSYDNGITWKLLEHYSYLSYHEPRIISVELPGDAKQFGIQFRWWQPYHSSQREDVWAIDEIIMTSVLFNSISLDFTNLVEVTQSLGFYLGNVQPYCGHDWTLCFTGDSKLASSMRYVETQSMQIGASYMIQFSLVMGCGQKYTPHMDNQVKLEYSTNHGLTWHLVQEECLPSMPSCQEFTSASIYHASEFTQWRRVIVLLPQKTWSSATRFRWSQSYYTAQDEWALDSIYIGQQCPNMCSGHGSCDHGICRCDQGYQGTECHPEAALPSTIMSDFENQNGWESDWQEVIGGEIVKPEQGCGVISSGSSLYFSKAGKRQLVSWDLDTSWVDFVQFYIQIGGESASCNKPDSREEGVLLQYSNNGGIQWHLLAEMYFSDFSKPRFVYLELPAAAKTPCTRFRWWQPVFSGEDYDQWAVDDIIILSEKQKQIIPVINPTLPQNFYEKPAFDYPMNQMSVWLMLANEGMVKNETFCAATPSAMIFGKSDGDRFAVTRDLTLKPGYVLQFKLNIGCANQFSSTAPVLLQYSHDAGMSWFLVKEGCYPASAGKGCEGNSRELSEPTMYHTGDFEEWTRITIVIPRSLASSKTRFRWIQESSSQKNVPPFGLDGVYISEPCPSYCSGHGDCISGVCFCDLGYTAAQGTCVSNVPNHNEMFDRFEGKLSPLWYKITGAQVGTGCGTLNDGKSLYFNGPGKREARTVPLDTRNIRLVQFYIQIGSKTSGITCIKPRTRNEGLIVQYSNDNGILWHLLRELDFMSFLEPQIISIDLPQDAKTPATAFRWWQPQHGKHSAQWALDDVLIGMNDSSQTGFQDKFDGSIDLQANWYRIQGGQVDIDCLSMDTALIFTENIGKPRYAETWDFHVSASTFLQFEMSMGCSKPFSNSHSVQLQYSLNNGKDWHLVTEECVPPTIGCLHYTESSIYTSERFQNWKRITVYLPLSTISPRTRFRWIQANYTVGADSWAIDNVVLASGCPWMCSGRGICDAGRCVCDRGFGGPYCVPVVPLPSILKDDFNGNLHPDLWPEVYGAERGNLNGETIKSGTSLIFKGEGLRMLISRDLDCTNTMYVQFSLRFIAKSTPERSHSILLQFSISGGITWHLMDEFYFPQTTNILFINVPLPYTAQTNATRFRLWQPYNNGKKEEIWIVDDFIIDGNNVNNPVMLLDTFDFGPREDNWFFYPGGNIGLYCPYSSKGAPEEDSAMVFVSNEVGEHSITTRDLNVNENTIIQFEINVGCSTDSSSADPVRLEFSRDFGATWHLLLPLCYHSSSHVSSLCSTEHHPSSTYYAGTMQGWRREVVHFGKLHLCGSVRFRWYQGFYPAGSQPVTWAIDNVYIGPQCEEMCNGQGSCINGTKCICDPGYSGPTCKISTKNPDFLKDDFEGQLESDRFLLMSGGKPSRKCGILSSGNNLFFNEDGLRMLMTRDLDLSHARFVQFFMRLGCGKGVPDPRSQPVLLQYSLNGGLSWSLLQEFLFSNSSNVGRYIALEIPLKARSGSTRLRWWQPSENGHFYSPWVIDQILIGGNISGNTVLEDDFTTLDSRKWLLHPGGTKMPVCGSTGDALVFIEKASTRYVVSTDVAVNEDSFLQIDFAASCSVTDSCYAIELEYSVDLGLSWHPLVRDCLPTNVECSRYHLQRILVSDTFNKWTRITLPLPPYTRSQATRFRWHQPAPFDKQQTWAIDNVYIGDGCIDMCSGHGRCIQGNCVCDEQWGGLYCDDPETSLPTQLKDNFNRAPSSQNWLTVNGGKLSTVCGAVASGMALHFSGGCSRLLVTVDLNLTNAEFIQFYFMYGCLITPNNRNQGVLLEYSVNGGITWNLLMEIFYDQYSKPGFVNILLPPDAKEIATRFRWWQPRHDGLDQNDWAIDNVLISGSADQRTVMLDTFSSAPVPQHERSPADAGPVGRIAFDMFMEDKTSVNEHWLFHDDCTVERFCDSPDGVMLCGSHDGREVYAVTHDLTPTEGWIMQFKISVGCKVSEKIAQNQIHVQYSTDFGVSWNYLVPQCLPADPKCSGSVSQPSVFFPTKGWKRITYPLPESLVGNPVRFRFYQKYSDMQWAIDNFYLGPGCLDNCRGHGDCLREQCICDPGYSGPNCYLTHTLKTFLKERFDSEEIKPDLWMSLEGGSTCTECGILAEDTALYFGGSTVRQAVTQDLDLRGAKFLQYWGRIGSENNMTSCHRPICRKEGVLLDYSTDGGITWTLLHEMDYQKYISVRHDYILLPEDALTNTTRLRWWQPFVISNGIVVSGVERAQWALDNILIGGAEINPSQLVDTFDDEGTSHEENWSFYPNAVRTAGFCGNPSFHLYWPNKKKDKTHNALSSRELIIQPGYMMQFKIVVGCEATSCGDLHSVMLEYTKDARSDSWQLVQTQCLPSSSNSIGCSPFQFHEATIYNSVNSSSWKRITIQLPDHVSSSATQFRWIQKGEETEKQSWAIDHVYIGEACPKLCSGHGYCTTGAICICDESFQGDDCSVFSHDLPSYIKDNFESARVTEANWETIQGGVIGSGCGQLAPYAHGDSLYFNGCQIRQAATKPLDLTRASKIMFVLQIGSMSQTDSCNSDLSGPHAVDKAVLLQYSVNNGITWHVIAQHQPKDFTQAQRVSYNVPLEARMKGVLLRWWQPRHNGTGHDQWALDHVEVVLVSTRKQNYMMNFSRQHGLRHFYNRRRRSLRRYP

- Kd: 0.5 nM
Substance: reelin (from UniProt P78509)
